Read-outs that look alike come from different tables or passages of the source.
T1: human IL-23R (hIL-23R) (Homo sapiens, UniProt Q5VWK5)
T1 construct: his tag (C); purchased
T1 sequence (Q5VWK5 24-629): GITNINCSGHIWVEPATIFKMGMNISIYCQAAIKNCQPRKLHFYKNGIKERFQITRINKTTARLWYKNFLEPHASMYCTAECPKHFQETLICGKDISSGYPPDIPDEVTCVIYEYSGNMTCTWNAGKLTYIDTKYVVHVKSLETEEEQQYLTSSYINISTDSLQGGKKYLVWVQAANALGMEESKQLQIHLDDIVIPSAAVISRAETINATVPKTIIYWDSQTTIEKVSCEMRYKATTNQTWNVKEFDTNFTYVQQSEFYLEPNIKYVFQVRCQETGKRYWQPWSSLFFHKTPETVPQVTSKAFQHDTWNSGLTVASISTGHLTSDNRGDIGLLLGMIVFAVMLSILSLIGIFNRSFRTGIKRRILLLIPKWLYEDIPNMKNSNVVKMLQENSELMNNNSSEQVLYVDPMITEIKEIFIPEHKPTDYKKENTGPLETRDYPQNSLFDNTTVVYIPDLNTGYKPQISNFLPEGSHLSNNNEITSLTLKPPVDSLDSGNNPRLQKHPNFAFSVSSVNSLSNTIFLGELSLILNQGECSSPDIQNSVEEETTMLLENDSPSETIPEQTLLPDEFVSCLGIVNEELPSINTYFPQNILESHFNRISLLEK

B1: NLWQIFYQLSTILKRTGDPTAKKLLKALAEALKKGDEKALKELAKKATKYIRS (protein)
chain 1: NLWQIFYQLSTILKRTGDPTAKKLLKALAEALKKGDEKALKELAKKATKYIRS
chain 2: B1 chain 1
notes: computational design, 3-helix bundle, 53 residues
B2: … (protein)
chain 1: MESEKYLRELVKKYYEGKLSVQEAVEEVRKYARKKGLEAWMLTWMFMELVKRYI
chain 2: B2 chain 1
notes: computational design, 3-helix bundle, 54 residues

Assays:
human IL-23R (hIL-23R) = target: T1, human IL-23R (hIL-23R); assay: Biolayer interferometry (BLI) binding to hIL-23R; details: biolayer interferometry binding titrations; read-out: affinity (KD) for hIL-23R
Excerpt: Two designs, 23R_A (SEQ ID NO:10) and 23R_B (SEQ ID NO:110), were highly enriched in the final selection pool and were chosen for further biochemical characterization. Both designs are 3-helix bundles (54 and 53 residues, respectively) which incorporate the native Trp hotspot at the N-terminal end of a helix such that IL-23R residue D118 forms a helix-capping hydrogen bond with the Trp hotspot's free backbone amine, similar to the αD helix of p19 (FIG. 1D). In both designs, this central binding helix has a larger interaction surface with hIL-23R, mediated by additional de novo hotspots, than p19. […]
Variants were first screened for relative binding to hIL-23R with biolayer interferometry (BLI). hIL-23R was immobilized on the BLI sensor tips and binding to each variant in solution at a constant concentration (50 nM) was measured to qualitatively determine relative performance of the variants. For the best-performing variants, binding constants (KD, including kon, and koff) were quantitatively determined with BLI titration experiments in triplicate. […]
Qualitative and quantitative assessment of binding affinity was performed using biolayer interferometry (ForteBio Octet™ […] and associated software for analysis). […] Kinetic constants were determined from the mathematical fit of a 1:1 binding model.

[1] = Circular dichroism temperature and chemical denaturant (GuHCl) melts; type: physicochemical
Protocol: FIG. 3. Stability analysis of B08, a representative affinity-matured combinatorial variant and BO4dslf02, a representative disulfide-stabilized variant. (A) Designed proteins were incubated in simulated gastric or intestinal fluids and degradation was assessed by SDS PAGE at 5, 15, 30 and 60 minutes, 4 and 24 hours. (B) Resistance to temperature and chemical denaturant (GuHCl) was assessed by circular dichroism, measuring the helical signature (signal at 222 nm) in the conditions shown normalized to baseline (25° C. and 0 M GuHCl).
CD spectra were recorded with a J-1500 Circular Dichroism Spectrometer (JASCO). Proteins were assayed at […] in DPBS free of MgCl2 and […]. (Life Technologies) with guanidinium hydrochloride from 0 to 6 M, and data were collected at 25° C. For temperature melts, proteins at […] were heated from 25° C. to 95° C. over approximately 1.5 hours.

Row | Molecule | Kd (human IL-23R (hIL-23R)) | stability by circular dichroism (CD) [1] | stability by circular dichroism (CD) ([1]; high temperature and high concentrations of chemical denaturant)
1 | B1 | 70 ± 50 nM | high stability | 
2 | B2 | 26 ± 1 nM |  | high stability

Reference: patent publication US20230357323A1, “HUMAN IL23 RECEPTOR BINDING POLYPEPTIDES” (University of Washington, priority 2020, published 2023)
